This is an account of results in publication PMC7948503, “Optimization of a peptide ligand for the adhesion GPCR ADGRG2 provides a potent tool to explore receptor biology” (The Journal of Biological Chemistry, 2020).

Non-standard residues stand in square brackets, D forms with d. Primed or numbered codes have the meaning given here. No end group written: not given here. Phe(4-Me) = Cc1ccc(C[C@H](N)C(=O)O)cc1; FITC′ = not defined here

Test in all cases: FRET or BRET; HEK293 cells transfected with Rluc-ADGRG2-ΔGPS-β WT or mutants, stimulated by increasing concentrations of FITC-conjugated VPM-p15; saturation curves fitted with GraphPad; each experiment repeated 6 times
Holding throughout (settings): one partner purified

One test concerns the target T1, Rluc-ADGRG2-ΔGPS-β F829A (mouse, UniProt Q8CJ12-3 38-995, F829A).
T1 construct: ADGRG2 (GPR64), mouse, ADGRG2-ΔGPS-β: the entire ECD removed; source: HEK293, transfected, on cells; not shown: Rluc, N-terminal, kept

For a further test, the target named is T2, Rluc-ADGRG2-ΔGPS-β F764A (mouse, UniProt Q8CJ12-3 38-995, F764A).
T2 construct: ADGRG2 (GPR64), mouse, ADGRG2-ΔGPS-β: the entire ECD removed; source: HEK293, transfected, on cells; not shown: Rluc, N-terminal, kept
T2 sequence (Q8CJ12 other isoform, or with tags, fused parts or gaps F764A | F764A | F764A F764A): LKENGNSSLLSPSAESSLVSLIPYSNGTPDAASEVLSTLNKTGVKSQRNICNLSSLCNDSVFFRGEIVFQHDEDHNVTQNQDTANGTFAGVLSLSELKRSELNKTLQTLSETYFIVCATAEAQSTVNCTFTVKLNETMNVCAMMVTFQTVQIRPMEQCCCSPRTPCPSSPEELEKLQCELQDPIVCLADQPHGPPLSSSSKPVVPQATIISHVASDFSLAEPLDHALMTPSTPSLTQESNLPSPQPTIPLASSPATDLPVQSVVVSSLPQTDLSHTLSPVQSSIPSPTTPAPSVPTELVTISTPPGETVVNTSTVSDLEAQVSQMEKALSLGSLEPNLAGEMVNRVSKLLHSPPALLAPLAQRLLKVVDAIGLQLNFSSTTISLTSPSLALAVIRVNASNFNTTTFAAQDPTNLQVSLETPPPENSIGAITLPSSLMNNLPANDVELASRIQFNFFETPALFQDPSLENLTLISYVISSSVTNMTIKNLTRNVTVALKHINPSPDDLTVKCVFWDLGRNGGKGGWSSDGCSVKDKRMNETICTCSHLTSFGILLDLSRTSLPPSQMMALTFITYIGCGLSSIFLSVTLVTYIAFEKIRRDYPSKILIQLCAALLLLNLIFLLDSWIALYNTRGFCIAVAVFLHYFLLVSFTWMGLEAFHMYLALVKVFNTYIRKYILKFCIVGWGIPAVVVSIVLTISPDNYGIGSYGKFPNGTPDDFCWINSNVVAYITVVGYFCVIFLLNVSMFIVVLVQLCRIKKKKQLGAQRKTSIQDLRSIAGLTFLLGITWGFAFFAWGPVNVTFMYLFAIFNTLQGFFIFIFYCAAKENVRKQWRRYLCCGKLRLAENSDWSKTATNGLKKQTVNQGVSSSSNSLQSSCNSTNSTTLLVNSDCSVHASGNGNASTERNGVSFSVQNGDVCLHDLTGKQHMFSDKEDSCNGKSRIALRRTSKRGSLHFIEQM

The next test has as its target T3, Rluc-ADGRG2-ΔGPS-β L679A (mouse, UniProt Q8CJ12-3 38-995, L679A).
T3 construct: ADGRG2 (GPR64), mouse, ADGRG2-ΔGPS-β: the entire ECD removed; source: HEK293, transfected, on cells; not shown: Rluc, N-terminal, kept

For the next test, the target named is T4, Rluc-ADGRG2-ΔGPS-β N759A (mouse, UniProt Q8CJ12-3 38-995, N759A).
T4 construct: ADGRG2 (GPR64), mouse, ADGRG2-ΔGPS-β: the entire ECD removed; source: HEK293, transfected, on cells; not shown: Rluc, N-terminal, kept
T4 sequence (Q8CJ12 other isoform, or with tags, fused parts or gaps N759A | N759A | N759A N759A): as the sequence (Q8CJ12 other isoform, or with tags, fused parts or gaps F764A | F764A | F764A F764A) above, with N722A, A727F counted along it

A further test deals with T5, Rluc-ADGRG2-ΔGPS-β V762A (mouse, UniProt Q8CJ12-3 38-995, V762A).
T5 construct: ADGRG2 (GPR64), mouse, ADGRG2-ΔGPS-β: the entire ECD removed; source: HEK293, transfected, on cells; not shown: Rluc, N-terminal, kept
T5 sequence (Q8CJ12 other isoform, or with tags, fused parts or gaps V762A | V762A | V762A V762A): as the sequence (Q8CJ12 other isoform, or with tags, fused parts or gaps F764A | F764A | F764A F764A) above, with V725A, A727F counted along it

The target in test [1] is T6, Rluc-ADGRG2-ΔGPS-β wildtype (mouse, UniProt Q8CJ12-3 38-995).
T6 construct: also called WT; ADGRG2-ΔGPS-β WT; source: HEK293, transfected, on cells; not shown: Rluc, N-terminal, kept
T6 sequence (Q8CJ12 other isoform, or with tags, fused parts or gaps mutant): as the sequence (Q8CJ12 other isoform, or with tags, fused parts or gaps F764A | F764A | F764A F764A) above, with A727F counted along it

In the next test the target is T7, Rluc-ADGRG2-ΔGPS-β M839A (mouse, UniProt Q8CJ12-3 38-995, M839A).
T7 construct: ADGRG2 (GPR64), mouse, ADGRG2-ΔGPS-β: the entire ECD removed; source: HEK293, transfected, on cells; not shown: Rluc, N-terminal, kept
T7 sequence (Q8CJ12 other isoform, or with tags, fused parts or gaps M839A | M839A | M839A M839A): as the sequence (Q8CJ12 other isoform, or with tags, fused parts or gaps F764A | F764A | F764A F764A) above, with A727F, M802A counted along it

Another test has as its target T8, Rluc-ADGRG2-ΔGPS-β S661A (mouse, UniProt Q8CJ12-3 38-995, S661A).
T8 construct: ADGRG2 (GPR64), mouse, ADGRG2-ΔGPS-β: the entire ECD removed; source: HEK293, transfected, on cells; not shown: Rluc, N-terminal, kept

The next test deals with T9, Rluc-ADGRG2-ΔGPS-β V731A (mouse, UniProt Q8CJ12-3 38-995, V731A).
T9 construct: ADGRG2 (GPR64), mouse, ADGRG2-ΔGPS-β: the entire ECD removed; source: HEK293, transfected, on cells; not shown: Rluc, N-terminal, kept
T9 sequence (Q8CJ12 other isoform, or with tags, fused parts or gaps V731A | V731A | V731A V731A): as the sequence (Q8CJ12 other isoform, or with tags, fused parts or gaps F764A | F764A | F764A F764A) above, with V694A, A727F counted along it

The target of another test is T10, Rluc-ADGRG2-ΔGPS-β W662A (mouse, UniProt Q8CJ12-3 38-995, W662A).
T10 construct: ADGRG2 (GPR64), mouse, ADGRG2-ΔGPS-β: the entire ECD removed; source: HEK293, transfected, on cells; not shown: Rluc, N-terminal, kept
T10 sequence (Q8CJ12 other isoform, or with tags, fused parts or gaps W662A | W662A | W662A W662A): as the sequence (Q8CJ12 other isoform, or with tags, fused parts or gaps F764A | F764A | F764A F764A) above, with W625A, A727F counted along it

A further test addresses T11, Rluc-ADGRG2-ΔGPS-β F772A (mouse, UniProt Q8CJ12-3 38-995, F772A).
T11 construct: ADGRG2 (GPR64), mouse, ADGRG2-ΔGPS-β: the entire ECD removed; source: HEK293, transfected, on cells; not shown: Rluc, N-terminal, kept

The next test deals with T12, Rluc-ADGRG2-ΔGPS-β Y765A (mouse, UniProt Q8CJ12-3 38-995, Y765A).
T12 construct: ADGRG2 (GPR64), mouse, ADGRG2-ΔGPS-β: the entire ECD removed; source: HEK293, transfected, on cells; not shown: Rluc, N-terminal, kept
T12 sequence (Q8CJ12 other isoform, or with tags, fused parts or gaps Y765A | Y765A | Y765A Y765A): as the sequence (Q8CJ12 other isoform, or with tags, fused parts or gaps F764A | F764A | F764A F764A) above, with A727F, Y728A counted along it

For another test, the target named is T13, Rluc-ADGRG2-ΔGPS-β F828A (mouse, UniProt Q8CJ12-3 38-995, F828A).
T13 construct: ADGRG2 (GPR64), mouse, ADGRG2-ΔGPS-β: the entire ECD removed; source: HEK293, transfected, on cells; not shown: Rluc, N-terminal, kept
T13 sequence (Q8CJ12 other isoform, or with tags, fused parts or gaps F828A | F828A | F828A F828A): as the sequence (Q8CJ12 other isoform, or with tags, fused parts or gaps F764A | F764A | F764A F764A) above, with A727F, F791A counted along it

The target in a further test is T14, Rluc-ADGRG2-ΔGPS-β V768A (mouse, UniProt Q8CJ12-3 38-995, V768A).
T14 construct: ADGRG2 (GPR64), mouse, ADGRG2-ΔGPS-β: the entire ECD removed; source: HEK293, transfected, on cells; not shown: Rluc, N-terminal, kept
T14 sequence (Q8CJ12 other isoform, or with tags, fused parts or gaps V768A | V768A | V768A V768A): as the sequence (Q8CJ12 other isoform, or with tags, fused parts or gaps F764A | F764A | F764A F764A) above, with A727F, V731A counted along it

A further test has as its target T15, Rluc-ADGRG2-ΔGPS-β V834A (mouse, UniProt Q8CJ12-3 38-995, V834A).
T15 construct: ADGRG2 (GPR64), mouse, ADGRG2-ΔGPS-β: the entire ECD removed; source: HEK293, transfected, on cells; not shown: Rluc, N-terminal, kept

For a further test, the target named is T16, Rluc-ADGRG2-ΔGPS-β S760A (mouse, UniProt Q8CJ12-3 38-995, S760A).
T16 construct: ADGRG2 (GPR64), mouse, ADGRG2-ΔGPS-β: the entire ECD removed; source: HEK293, transfected, on cells; not shown: Rluc, N-terminal, kept
T16 sequence (Q8CJ12 other isoform, or with tags, fused parts or gaps S760A | S760A | S760A S760A): as the sequence (Q8CJ12 other isoform, or with tags, fused parts or gaps F764A | F764A | F764A F764A) above, with S723A, A727F counted along it

T15 sequence (Q8CJ12 other isoform, or with tags, fused parts or gaps V834A | V834A | V834A V834A): as the sequence (Q8CJ12 other isoform, or with tags, fused parts or gaps F764A | F764A | F764A F764A) above, with A727F, V797A counted along it
T1 sequence (Q8CJ12 other isoform, or with tags, fused parts or gaps F829A | F829A | F829A F829A): as the sequence (Q8CJ12 other isoform, or with tags, fused parts or gaps F764A | F764A | F764A F764A) above, with A727F, F792A counted along it
T3 sequence (Q8CJ12 other isoform, or with tags, fused parts or gaps L679A | L679A | L679A L679A): as the sequence (Q8CJ12 other isoform, or with tags, fused parts or gaps F764A | F764A | F764A F764A) above, with L642A, A727F counted along it
T11 sequence (Q8CJ12 other isoform, or with tags, fused parts or gaps F772A | F772A | F772A F772A): as the sequence (Q8CJ12 other isoform, or with tags, fused parts or gaps F764A | F764A | F764A F764A) above, with A727F, F735A counted along it
T8 sequence (Q8CJ12 other isoform, or with tags, fused parts or gaps S661A | S661A | S661A S661A): as the sequence (Q8CJ12 other isoform, or with tags, fused parts or gaps F764A | F764A | F764A F764A) above, with S624A, A727F counted along it

VS[Phe(4-Me)]GILLDLSRTSLP-{FITC′} [FITC-conjugated VPM-p15 (ADGRG2 Stachel peptide p15 T1V/F3Phe(4-Me))]: the EC50 (as a rule, the concentration needed to bring the measured effect to its halfway point) with Rluc-ADGRG2-ΔGPS-β F829A stood at 323 nM; with Rluc-ADGRG2-ΔGPS-β F764A, 1110 nM; in the test with Rluc-ADGRG2-ΔGPS-β L679A it was 1160 nM; in the test with Rluc-ADGRG2-ΔGPS-β N759A, 1550 nM; with Rluc-ADGRG2-ΔGPS-β V762A, 1190 nM; in test [1], 936 nM. Moreover, the EC50 is 896 nM in the test with Rluc-ADGRG2-ΔGPS-β M839A; 778 nM with Rluc-ADGRG2-ΔGPS-β S661A; 838 nM with Rluc-ADGRG2-ΔGPS-β V731A; 1060 nM with Rluc-ADGRG2-ΔGPS-β W662A; 842 nM in the test with Rluc-ADGRG2-ΔGPS-β F772A; 905 nM with Rluc-ADGRG2-ΔGPS-β Y765A. Also, the EC50 with Rluc-ADGRG2-ΔGPS-β F828A was determined as 1170 nM; with Rluc-ADGRG2-ΔGPS-β V768A, 1040 nM; with Rluc-ADGRG2-ΔGPS-β V834A, 1120 nM; with Rluc-ADGRG2-ΔGPS-β S760A, 1350 nM.
